This is an account of results in patent US10676527B2, “Methods and compositions for modulation of blood-neural barrier” (Ludwig Institute for Cancer Research Ltd, priority 2006, dated 2020).

One assay concerns cerebral vessels. Description: electron microscopy of cerebral vessels after intraventricular injection (edema). The class given is in vivo. Particulars: mice, 2 μL at 1 μM intraventricular, 1 hour after injection, cortex. Here is the method: Electron microscopy of vessels in the brain from mice treated by intraventricular injection 1 hour prior to analysis. Panel A, PBS; panel B, tPA (2 μL at a concentration of a 1 μM); panels C and D PDGF-CC (3 μL at a concentration of a 1 μM). Panels B-D show arterioles surrounded by fluid-filled spaces indicative of developing edema. The approximate magnification is indicated on each panel.
Specifically, tPA or active PDGF-CC (2 μL each at a concentration a 1 μM) were injected intraventricularly into mice, and morphological analysis of the cerebrovascular structure was performed. PBS was used as control. […] FIGS. 5B-D show arterioles surrounded by fluid-filled spaces indicative of developing edema. The approximate magnification is indicated on each panel.

In the next assay the test system is BBB. Nature of the assay: Evans Blue extravasation (BBB opening) after intraventricular injection. Format: in vivo. Particulars: C57BL6 mice, 2 μl intraventricular, 3 μM, 1 hour after injection. Here is the method: Wild type C57BL6 mice (10 Week old) were injected intraventricularly into the dorsal third ventricle with 2 μl of PBS, active PDGF-AA, PDGF-BB (both from Preprotech Inc.) and PDGF-CC (see below) (3 μM). Evans Blue was given intravenously immediately after the injection. One hour after the injection, the animals were perfused with PBS and the brain tissue was removed and processed for Evans Blue extravasation.
Wild type C57BL6 mice (10 Week old) were injected intraventricularly into the dorsal third ventricle with 2 μl of either PBS, wild type murine tPA (3 μM), active PDGF-CC (3 μM), or wild type murine tPA (3 μM) plus active PDGF-CC (3 μM). Evans Blue was given intravenously immediately after the injection. One hour after the injection, the animals were perfused with PBS and the brain tissue was removed and processed for Evans Blue extravasation.
Wt C57BL6 mice (10 Week old) were injected intraventricularly with 3 μl of either PBS, wild type murine tPA (3 μM), wild type murine tPA (3 μM) with rabbit anti-PDGF-CC (150 μg/ml). Evans Blue was given intravenously immediately after the injection. One hour after the injection, the animals were perfused with PBS and the brain tissue was removed and processed for Evans Blue extravasation.

B1: tPA: wild type murine tissue-type plasminogen activator, serine protease thrombolytic agent (protein, UniProt P11214 33-559, looked up)
Tissue-type plasminogen …: SYRATCRDEPTQTTYQQHQSWLRPMLRSSRVEYCRCNSGLVQCHSVPVRSCSEPRCFNGGTCQQALYFSDFVCQCPDGFVGKRCDIDTRATCFEEQGITYRGTWSTAESGAECINWNSSVLSLKPYNARRPNAIKLGLGNHNYCRNPDRDLKPWCYVFKAGKYTTEFCSTPACPKGKSEDCYVGKGVTYRGTHSLTTSQASCLPWNSIVLMGKSYTAWRTNSQALGLGRHNYCRNPDGDARPWCHVMKDRKLTWEYCDMSPCSTCGLRQYKRPQFRIKGGLYTDITSHPWQAAIFVKNKRSPGERFLCGGVLISSCWVLSAAHCFLERFPPNHLKVVLGRTYRVVPGEEEQTFEIEKYIVHEEFDDDTYDNDIALLQLRSQSKQCAQESSSVGTACLPDPNLQLPDWTECELSGYGKHEASSPFFSDRLKEAHVRLYPSSRCTSQHLFNKTVTNNMLCAGDTRSGGNQDLHDACQGDSGGPLVCMINKQMTLTGIISWGLGCGQKDVPGVYTKVTNYLDWIHDNMKQ
Turning to B1, the “edema formation around cerebral vessels (transmission electron micrographs)” value in the assay with cerebral vessels is given as “induce areas of fluid accumulation surrounding the vessels”. Further, the “opening of the BBB (Evans Blue extravasation)” value in the assay with BBB (Example 3, FIG. 3) is on record as “potent inducers of opening of the BBB”.

B2: PDGF-BB: active platelet-derived growth factor BB dimer (from Preprotech Inc.) (protein, UniProt P01127 82-190, looked up)
Platelet-derived growth …: SLGSLTIAEPAMIAECKTRTEVFEISRRLIDRTNANFLVWPPCVEVQRCSGCCNNRNVQCRPTQVQLRPVQVRKIEIVRKKPIFKKATVTLEDHLACKCETVAAARPVT
As for B2, the “vascular permeability / opening of the BBB (Evans Blue extravasation)” value in the assay on BBB (Example 1, FIG. 1) is recorded as “induce increased vascular permeability”.
